Experiments:
purified protein [1] = substrate: O=C(O)CBr; assay: purified protein; type: biochemical, Zobellia galactanivorans; conditions: 20 °C, 1 mM HEPES, 1 mM EDTA, 20 mM sodium sulfate, 56 μM phenol red, pH 8.2 (initial), 0.3 mg/ml enzyme
purified protein [2] = substrate: O=C(O)CI; assay: purified protein; type: biochemical, Zobellia galactanivorans; conditions: 20 °C, 1 mM HEPES, 1 mM EDTA, 20 mM sodium sulfate, 56 μM phenol red, pH 8.2 (initial), 0.3 mg/ml enzyme

B1: ZgHAD (Zobellia galactanivorans) (protein)
chain: MSAKVKKPELLIFDVNETLLDMGPLENAINESLNSEHAFSLWFRTLLHYSLTETLTGNYVDFGTIGKATLKMTMRKFGKNLSEDRLDAILGNIKKLPAHEDVKEGLKMLKEAQIKLVALSNSNGKLLNAQLQFAGLADYFDAIFSVEAVGRYKPELASYRAVLETMKVPAENTMMVAAHGWDILGAKRAGLRTAFVAREGHAIYPLDGTPELEAKTVLEVARTLLKN
notes: recombinant, pFO4 vector, E. coli BL21 (DE3); homodimer in solution
Km (purified protein [1]): 460 µM | Km (purified protein [2]): 310 µM

From article PMC8490876, “Functional Characterization of a L-2-Haloacid Dehalogenase From Zobellia galactanivorans Dsij^T Suggests a Role in Haloacetic Acid Catabolism and a Wide Distribution in Marine Environments” (Frontiers in Microbiology, 2021)
